This note sets out measurements from patent publication US20240368249A1 (INTERVET, published 2024).

Assay [1] addresses T1, canine IL-4 (canine, UniProt O77762 25-132, biotin-labeled in the OCTET assay).
T1 sequence (looked up): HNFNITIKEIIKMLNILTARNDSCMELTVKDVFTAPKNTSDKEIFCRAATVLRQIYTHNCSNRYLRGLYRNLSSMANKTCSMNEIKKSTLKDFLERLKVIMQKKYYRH
In words: cell-based or functional assay.

The target in a further assay is T2, canine IL-13 (canine, UniProt Q9N0W9 19-131, limits assumed, biotin-labeled in the OCTET assay).
T2 construct: also called cIL-13; canine Interleukin-13
T2 sequence (looked up): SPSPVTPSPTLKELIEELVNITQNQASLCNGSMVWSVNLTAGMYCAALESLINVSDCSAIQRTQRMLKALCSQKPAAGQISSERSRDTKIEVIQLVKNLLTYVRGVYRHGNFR
Briefly: BLI (OCTET HTX), biotin-cIL-13 on SA biosensors. As for the experimental part: (§1) The binding constants for the cFc fusion proteins provided in Tables 3 and 4 below, were determined using OCTET® HTX. All kinetics measurements were performed by OCTET® HTX using SA® biosensors and DATA ACQUISITION® 12.0 software. 10 μg/mL of biotin-labeled antigen, either canine IL-4 (cIL-4) or canine IL-13 (cIL-13) were loaded onto the SA® biosensors for 120 seconds. Next, the biosensors were placed into 1×pH 7.0 TBS/Casein buffer for 60 seconds for the blocking phase. For the association phase, antigen loaded biosensors were placed into 2-fold serial dilutions from 1 μM down to 15.6 nM of the wild-type, the bispecific, or the FcRn-mutant receptor Fc-fusions that recognized the cIL-4 or cIL-13 antigen in 1×pH 7.0 TBS/Casein buffer for 30 seconds. The last well was buffer alone and that sensor was used for reference sensor subtraction. Finally, the biosensors were placed into 1×pH 7.0 TBS/Casein buffer for 120 seconds for the dissociation phase. The results were then analyzed using Data Analysis 12.0 software and the curves were fitted using a 1:1 binding model.

Assay [2] concerns the target T1, canine IL-4. In words: BLI (OCTET HTX), biotin-cIL-4 on SA biosensors. As for the experimental part:
as §1

B1: cIL-4Rα-13Rα2_ZW1-cFc (Fc fusion)
chain 1: VKVLHEPSCFSDYISTSVCQWKMDHPTNCSAELRLSYQLDFMGSENHTCVPENREDSVCVCSMPIDDAVEADVYQLDLWAGQQLLWSGSFQPSKHVKPRTPGNLTVHPNISHTWLLMWTNPYPTENHLHSELTYMVNVSNDNDPEDFKVYNVTYMGPTLRLAASTLKSGASYSARVRAWAQTYNSTWSDWSPSTTWLNYYEPWEQHLPPKRENGRVPRPPDCPKCPAPEMLGGPSVFIFPPKPKDTLLIARTPEVTCVVVDLDPEDPEVQISWFVDGKQMQTAKTQPREEQFNGTYRVVSVLPIGHQDWLKGKQFTCKVNNKALPSPIERTISKARGQAHQPSVYVYPPSREELSKNTVSLTCLIKDFFPPDIDVEWQSNGQQEPESKYRTTPPQLDEDGSYALVSKLSVDKSRWQRGDTFICAVMHEALHNHYTQESLSHSPGK
chain 2: SMLSNAEIKVNPPQDFEIVDPGYLGYLSLQWQPPLFPDNFKECTIEYELKYRNIDSENWKTIITKNLHYKDGFDLNKGIEAKINTLLPAQCTNGSEVRSSWAETTYWTSPQGNRETKIQDMDCVYYNWQYLVCSWKPGMGVHFDTNYQLFYWYEGLDHSAECTDYIKVNGKNMGCRFPYLESSDYKDFYICVNGSSESQPIRPSYFIFQLQNIVKPMPPDYLSLTVKNSEEINLKWNMPKGPIPAKCFIYEIEFTEDGTTWVTTTVENEIQITRTSNESQKLCFLVRSKVNIYCSDDGIWSEWSDEQCWKGDIWKETPKRENGRVPRPPDCPKCPAPEMLGGPSVFIFPPKPKDTLLIARTPEVTCVVVDLDPEDPEVQISWFVDGKQMQTAKTQPREEQFNGTYRVVSVLPIGHQDWLKGKQFTCKVNNKALPSPIERTISKARGQAHQPSVYVLPPSREELSKNTVSLLCLIKDFFPPDIDVEWQSNGQQEPESKYLTWPPQLDEDGSYFLYSKLSVDKSRWQRGDTFICAVMHEALHNHYTQESLSHSPGK
B1: the “IC50 for inhibition of cIL-4 mediated STAT6 phosphorylation in DH82 cells, against that of cIL4Rα-cFc or cIL4Rα-IL13Rα1_ZW1-cFc” value in the assay with canine IL-4 [1] was > 3 orders of magnitude higher.

B2: cIL-4Rα-13Rα1_ZW1-cFc (Fc fusion)
chain 1: VKVLHEPSCFSDYISTSVCQWKMDHPTNCSAELRLSYQLDFMGSENHTCVPENREDSVCVCSMPIDDAVEADVYQLDLWAGQQLLWSGSFQPSKHVKPRTPGNLTVHPNISHTWLLMWTNPYPTENHLHSELTYMVNVSNDNDPEDFKVYNVTYMGPTLRLAASTLKSGASYSARVRAWAQTYNSTWSDWSPSTTWLNYYEPWEQHLPPKRENGRVPRPPDCPKCPAPEMLGGPSVFIFPPKPKDTLLIARTPEVTCVVVDLDPEDPEVQISWFVDGKQMQTAKTQPREEQFNGTYRVVSVLPIGHQDWLKGKQFTCKVNNKALPSPIERTISKARGQAHQPSVYVYPPSREELSKNTVSLTCLIKDFFPPDIDVEWQSNGQQEPESKYRTTPPQLDEDGSYALVSKLSVDKSRWQRGDTFICAVMHEALHNHYTQESLSHSPGK
chain 2: GGVAAPTETQPPVTNLSVSVENLCTVIWTWDPPEGASPNCTLRYFSHFDNKQDKKIAPETHRSKEVPLNERICLQVGSQCSTNESDNPSILVEKCTPPPEGDPESAVTELQCVWHNLSYMKCTWLPGRNTSPDTNYTLYYWHSSLGKILQCEDIYREGQHIGCSFALTNLKDSSFEQHSVQIVVKDNAGKIRPSFNIVPLTSHVKPDPPHIKRLFFQNGNLYVQWKNPQNFYSRCLSYQVEVNNSQTETNDIFYVEEAKCQNSEFEGNLEGTICFMVPGVLPDTLNTVRIRVRTNKLCYEDDKLWSNWSQAMSIGENTDPTPKRENGRVPRPPDCPKCPAPEMLGGPSVFIFPPKPKDTLLIARTPEVTCVVVDLDPEDPEVQISWFVDGKQMQTAKTQPREEQFNGTYRVVSVLPIGHQDWLKGKQFTCKVNNKALPSPIERTISKARGQAHQPSVYVLPPSREELSKNTVSLLCLIKDFFPPDIDVEWQSNGQQEPESKYLTWPPQLDEDGSYFLYSKLSVDKSRWQRGDTFICAVMHEALHNHYTQESLSHSPGK
notes: Bispecific heterodimer; also called cIL4Rα-IL13Rα1_ZW1-cFc; cIL-4Rα-IL-13Rα1_ZW1-cFc
Take B2: the “fold tighter binding against the unmodified IL-13Rα1-cFc” value in the assay with canine IL-13 was 8 fold tighter. Further, the “fold change of KD against the unmodified cIL-4Rα-cFc homodimer” value with canine IL-4 [2] is about 10000 fold higher.
